One assay has as its target T1, soluble cynomolgus BLyS (cynomolgus, UniProt A0A2K5V2X4 134-285).
T1 construct: Soluble form; also called cyBLyS; Soluble cyBLyS
The experiment in a line: ELISA, soluble cyBLyS.

Assay [1] deals with T2, soluble human BLyS (human, UniProt Q9Y275 134-285).
T2 construct: also called hBLyS; human BAFF (BLyS)
Put plainly: ELISA, soluble hBLyS; soluble hBLyS ELISA (weak, IC50 28 nM). For orientation: In an ELISA, binding on a coated surface is turned into a signal by an enzyme label.

Assay [2] concerns the target T2, soluble human BLyS. Put plainly: blocking of biotinylated soluble hBLyS binding to immobilized mBR3; hBLyS/mBR3 receptor blocking assay; no blocking up to 100 nM.
In assay [3] the target is T3, soluble mouse BLyS (mouse, UniProt Q9WU72 127-309).
T3 construct: europium-labelled in DELFIA; also called mBLyS; mouse BAFF (BLyS)
The experiment in a line: ELISA, soluble mBLyS.

In assay [4] the target is T3, soluble mouse BLyS. Put plainly: Biacore. Background: In SPR one partner is held on a chip, and binding of the other changes the refractive index at the surface.

Data on 1 molecule can be found in patent US20170101466A1 (published 2017).

B1: 4A2 IgG expressed in HEK293 cells (antibody, V domains shown)
VH: QVQLVQSGGGVVQPGRSLRLSCAASGFTFSSYGMHWVRQAPGKGLEWVAVISHDGSNKYYADSVKGRFTISRDNSKNTLYLQMNSLRAEDTAVYYCAKDRSYYDILTGYYIPYYYGMDVWGQGTTVTVSS
VL: QAVLTQPPSASGTPGQKVTISCSGSSSDIGSNNVNWYQQFPGTAPKLLIHSNNLRPSGVPVRFSGSKSGTSASLAISGLQSEDEADYYCSAWDDSVNGVAFGGGTKLTVLG
notes: IgG from HEK293-FreeStyle cells
B1: the IC50 (as a rule, the concentration at which inhibition is half-maximal) in the assay with soluble cynomolgus BLyS was 1.46 nM; with soluble human BLyS [1], 28 nM; with soluble human BLyS [2], above 100 nM; with soluble mouse BLyS [3] it was 0.47 nM. Binding with soluble mouse BLyS [4] was characterised by a dissociation constant (Kd) of 0.0486 nM.
